Assay results from patent US20230203157A1 (published 2023).

T1: mouse PD-1 (mouse, UniProt Q02242 25-288)
T1 sequence (looked up): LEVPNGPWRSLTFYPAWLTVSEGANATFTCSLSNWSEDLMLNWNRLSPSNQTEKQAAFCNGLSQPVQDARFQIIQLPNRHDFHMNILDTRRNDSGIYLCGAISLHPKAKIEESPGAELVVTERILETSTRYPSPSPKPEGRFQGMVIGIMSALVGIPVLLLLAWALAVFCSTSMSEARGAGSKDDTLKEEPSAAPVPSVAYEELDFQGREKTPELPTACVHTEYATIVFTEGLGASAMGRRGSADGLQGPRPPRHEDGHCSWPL

B1: LoSTIM 7 (bispecific antibody, mouse IgG2a, kappa)
heavy: DVALTQTPVAQPVTLGDQASISCRSSQSLVHSNGRTYLEWYLQKPGQSPQLLIYKVSNRFSGVPDRFIGSGSGSDFTLTISRVEPEDLGVYYCFQATHDPNTFGAGTKLELKGGGGSGGGGSGGGGSQVQLQQSGAELVKPGSSVKISCKASGYTFTSHFIHWIKQQPGNGLEWIGGIYPGDGDTEYNQQFNGKATLTADKSSSTAYMRLSSLTSEDSAVYFCATRVPSYWFFDFWGPGTMVTVSSGGGGAGGGGDVQLVESGGGLVQPGGSRKLSCAASGFTFSSFGMHWVRQAPEKGLEWVAYISSGSNTIYYADTVKGRFTISRDNPKNTLFLQMTSLRSEDTAMYYCALTTGSWFAYWGQGTLVTVSAAKTTAPSVYPLAPVCGDTTGSSVTLGCLVKGYFPEPVTLTWNSGSLSSGVHTFPAVLQSDLYTLSSSVTVTSSTWPSQSITCNVAHPASSTKVDKKIEPRGPTIKPCPPCKCPAPNLEGGPSVFIFPPKIKDVLMISLSPIVTCVVVDVSEDDPDVQISWFVNNVEVHTAQTQTHREDYNSTLRVVSALPIQHQDWMSGKAFACAVNNKDLPAPIERTISKPKGSVRAPQVYVLPPPEEEMTKKQVTLTCMVTDFMPEDIYVEWTNNGKTELNYKNTEPVLDSDGSYFMYSKLRVEKKNWVERNSYSCSVVHEGLHNHHTTKSFSRTPGK
light: DILLTQSPAILSVRPGERVSFSCRASQSLGTSIHWYQQRTDGSPRLLIKYASESISGIPSRFSGSGSGTDFTLSINSVESEDIADYYCQQSNSWPITFGAGTKLELKRADAAPTVSIFPPSSEQLTSGGASVVCFLNNFYPKDINVKWKIDGSERQNGVLNSWTDQDSKDSTYSMSSTLTLTKDEYERHNSYTCEATHKTSTSPIVKSFNRNEC
B2: LoSTIM 8 (bispecific antibody, mouse IgG2a, kappa)
heavy: DVQLVESGGGLVQPGGSRKLSCAASGFTFSSFGMHWVRQAPEKGLEWVAYISSGSNTIYYADTVKGRFTISRDNPKNTLFLQMTSLRSEDTAMYYCALTTGSWFAYWGQGTLVTVSAAKTTAPSVYPLAPVCGDTTGSSVTLGCLVKGYFPEPVTLTWNSGSLSSGVHTFPAVLQSDLYTLSSSVTVTSSTWPSQSITCNVAHPASSTKVDKKIEPRGPTIKPCPPCKCPAPNLEGGPSVFIFPPKIKDVLMISLSPIVTCVVVDVSEDDPDVQISWFVNNVEVHTAQTQTHREDYNSTLRVVSALPIQHQDWMSGKAFACAVNNKDLPAPIERTISKPKGSVRAPQVYVLPPPEEEMTKKQVTLTCMVTDFMPEDIYVEWTNNGKTELNYKNTEPVLDSDGSYFMYSKLRVEKKNWVERNSYSCSVVHEGLHNHHTTKSFSRTPGKGGGGAGGGGDVALTQTPVAQPVTLGDQASISCRSSQSLVHSNGRTYLEWYLQKPGQSPQLLIYKVSNRFSGVPDRFIGSGSGSDFTLTISRVEPEDLGVYYCFQATHDPNTFGAGTKLELKGGGGSGGGGSGGGGSQVQLQQSGAELVKPGSSVKISCKASGYTFTSHFIHWIKQQPGNGLEWIGGIYPGDGDTEYNQQFNGKATLTADKSSSTAYMRLSSLTSEDSAVYFCATRVPSYWFFDFWGPGTMVTVSS
light: B1 light
B3: LoSTIM 3 (bispecific antibody, mouse IgG2a, kappa)
heavy: DVALTQTPVAQPVTLGDQASISCRSSQSLVHSNGRTYLEWYLQKPGQSPQLLIYKVSNRFSGVPDRFIGSGSGSDFTLTISRVEPEDLGVYYCFQATHDPNTFGAGTKLELKGGGGSGGGGSGGGGSQVQLQQSGAELVKPGSSVKISCKASGYTFTSHFIHWIKQQPGNGLEWIGGIYPGDGDTEYNQQFNGKATLTADKSSSTAYMRLSSLTSEDSAVYFCATRVPSYWFFDFWGPGTMVTVSSGGGGAGGGGEVQVVETGGGLVQPGSSLKLSCESSGFTFSSTWMNWVRQAPGKGLEWVALVKDKYSNYEANYAESVKGRFIISRDDSKNRVYLQMNTLRDQDTATYHCTRSRGYKNWYFDFWGPGTMVTVSSAKTTAPSVYPLAPVCGDTTGSSVTLGCLVKGYFPEPVTLTWNSGSLSSGVHTFPAVLQSDLYTLSSSVTVTSSTWPSQSITCNVAHPASSTKVDKKIEPRGPTIKPCPPCKCPAPNLEGGPSVFIFPPKIKDVLMISLSPIVTCVVVDVSEDDPDVQISWFVNNVEVHTAQTQTHREDYNSTLRVVSALPIQHQDWMSGKAFACAVNNKDLPAPIERTISKPKGSVRAPQVYVLPPPEEEMTKKQVTLTCMVTDFMPEDIYVEWTNNGKTELNYKNTEPVLDSDGSYFMYSKLRVEKKNWVERNSYSCSVVHEGLHNHHTTKSFSRTPGK
light: DIQMTQSPPSLSASLGDKVTITCQASQNINNYIAWYQQKPGKAPGLLILYTSTLVSGTPSRFSGSGSGRDYSFSISNVESEDIASYYCLQYDNSPRTFGGGTKLELKRADAAPTVSIFPPSSEQLTSGGASVVCFLNNFYPKDINVKWKIDGSERQNGVLNSWTDQDSKDSTYSMSSTLTLTKDEYERHNSYTCEATHKTSTSPIVKSFNRNEC
B4: LoSTIM 4 (bispecific antibody, mouse IgG2a, kappa)
heavy: EVQVVETGGGLVQPGSSLKLSCESSGFTFSSTWMNWVRQAPGKGLEWVALVKDKYSNYEANYAESVKGRFIISRDDSKNRVYLQMNTLRDQDTATYHCTRSRGYKNWYFDFWGPGTMVTVSSAKTTAPSVYPLAPVCGDTTGSSVTLGCLVKGYFPEPVTLTWNSGSLSSGVHTFPAVLQSDLYTLSSSVTVTSSTWPSQSITCNVAHPASSTKVDKKIEPRGPTIKPCPPCKCPAPNLEGGPSVFIFPPKIKDVLMISLSPIVTCVVVDVSEDDPDVQISWFVNNVEVHTAQTQTHREDYNSTLRVVSALPIQHQDWMSGKAFACAVNNKDLPAPIERTISKPKGSVRAPQVYVLPPPEEEMTKKQVTLTCMVTDFMPEDIYVEWTNNGKTELNYKNTEPVLDSDGSYFMYSKLRVEKKNWVERNSYSCSVVHEGLHNHHTTKSFSRTPGKGGGGAGGGGDVALTQTPVAQPVTLGDQASISCRSSQSLVHSNGRTYLEWYLQKPGQSPQLLIYKVSNRFSGVPDRFIGSGSGSDFTLTISRVEPEDLGVYYCFQATHDPNTFGAGTKLELKGGGGSGGGGSGGGGSQVQLQQSGAELVKPGSSVKISCKASGYTFTSHFIHWIKQQPGNGLEWIGGIYPGDGDTEYNQQFNGKATLTADKSSSTAYMRLSSLTSEDSAVYFCATRVPSYWFFDFWGPGTMVTVSS
light: B3 light

Target: T1, mouse PD-1
Experiment: cell-based or functional assay

Binder	proliferation by CFSE dilution; BALB/c CD8 T cells with allogeneic C57B6 BMDDC, 0.5 micromolar, 84 h	proliferation by CFSE dilution; OT-I CD8 T cells with SIINFEKL-pulsed C57B6 BMDDC, 0.5 micromolar, 72 h	CD69 expression; OT-I CD8 T cells with SIINFEKL-pulsed BMDDC, 0.5 micromolar, 57 h	proliferation (CFSE dilution); OT-I CD8 T cells with SIINFEKL-pulsed BMDDC, 0.5 micromolar, 57 h
B1	63.6%	43.9%		
B2	69.1%	78.4%		
B3			61%	90.1%
B4			79%	96.1%
